# Reference: article PMC2875725
# Target: HCV NS5B RNA-dependent RNA polymerase (Hepatitis C virus (strain ), UniProt Q9WMX2 2421-3010)
# Experiment: protein chip with QD fluorescence
# HCV NS5B RNA-dependent RNA polymerase, sequence (Q9WMX2 2421-3010): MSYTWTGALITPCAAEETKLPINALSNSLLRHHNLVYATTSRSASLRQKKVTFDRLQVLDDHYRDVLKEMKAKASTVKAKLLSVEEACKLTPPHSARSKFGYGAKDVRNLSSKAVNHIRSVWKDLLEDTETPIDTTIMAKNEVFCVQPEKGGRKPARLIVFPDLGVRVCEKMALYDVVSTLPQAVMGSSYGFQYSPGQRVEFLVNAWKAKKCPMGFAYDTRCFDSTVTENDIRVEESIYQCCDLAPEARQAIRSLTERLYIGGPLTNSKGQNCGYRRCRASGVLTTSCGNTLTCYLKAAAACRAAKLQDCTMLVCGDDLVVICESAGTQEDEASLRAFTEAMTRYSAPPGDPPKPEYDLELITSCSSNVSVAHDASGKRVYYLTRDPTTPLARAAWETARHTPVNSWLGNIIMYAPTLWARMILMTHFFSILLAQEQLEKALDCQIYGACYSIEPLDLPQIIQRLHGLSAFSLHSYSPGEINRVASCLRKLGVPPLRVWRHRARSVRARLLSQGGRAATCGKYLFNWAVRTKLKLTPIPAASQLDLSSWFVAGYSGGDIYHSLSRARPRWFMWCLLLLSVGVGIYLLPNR
binder,measurement,value
"CCCCACAUUCUCACCCCCUC (ssRNA, 5'-amine) [NS5Bmut RNA oligonucleotide]",binding result,no binding
